Values quoted from earlier work in paper PMC9836085.

Assays:
[1] = biological target: Rab6 (Drosophila melanogaster) (UniProt O18334)
[2] = biological target: Sas6 (Drosophila melanogaster) (UniProt Q9VAC8)
Chain of UniProt Q9VAC8 (Q9VAC8 whole entry): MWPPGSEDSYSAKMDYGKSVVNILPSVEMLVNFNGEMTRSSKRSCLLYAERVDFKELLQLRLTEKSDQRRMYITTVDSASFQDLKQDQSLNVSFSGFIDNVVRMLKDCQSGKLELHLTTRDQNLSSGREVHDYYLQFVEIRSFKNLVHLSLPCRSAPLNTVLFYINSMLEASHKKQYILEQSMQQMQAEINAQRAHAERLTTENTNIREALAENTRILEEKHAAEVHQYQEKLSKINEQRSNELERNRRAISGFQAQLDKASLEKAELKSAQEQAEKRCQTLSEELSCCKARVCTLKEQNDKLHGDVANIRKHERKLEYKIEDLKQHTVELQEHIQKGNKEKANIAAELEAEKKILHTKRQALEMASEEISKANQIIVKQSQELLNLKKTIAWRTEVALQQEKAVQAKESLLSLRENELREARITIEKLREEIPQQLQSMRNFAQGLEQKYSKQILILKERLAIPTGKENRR

Chain of UniProt O18334 (O18334 whole entry): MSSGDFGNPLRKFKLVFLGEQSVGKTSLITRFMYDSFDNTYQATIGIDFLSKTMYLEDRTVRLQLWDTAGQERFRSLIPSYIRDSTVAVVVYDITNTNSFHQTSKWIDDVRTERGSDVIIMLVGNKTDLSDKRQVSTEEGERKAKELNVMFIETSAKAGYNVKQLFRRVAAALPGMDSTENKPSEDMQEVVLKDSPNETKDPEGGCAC

## Gorab (from UniProt Q8IQQ4)
[1]
  Kd: 2240 nM
[2]
  Kd: 47 nM
